# Measured values published in the nanobody polyreactivity screen of Harvey et al. (2022).
# Assay: yeast display, Sf9 membrane polyspecificity reagent, FACS + sequencing; frameworks hold sequencing errors
# Procedure, shortened: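 Polyreactivity labels are assigned by the sorting gate from which each nanobody was recovered. The gates were low and high (top ~1%), set on anti-HA fluorescence for expression and streptavidin fluorescence for reagent binding. Before sorting, galactose-induced (36–48 hours) yeast display cells were stained for 1 hour at 4 °C with 10% biotinylated, detergent-solubilized Sf9 membrane reagent.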
row,Sequence,polyreactivity (PSR sort gate)
1,QVQLVESGGGLVQAGGSLRLSCAASGSILDYYVMGWYSQAPGKERELVAAIRGGGSTYYADSVKARFTISRDNAKNTVYLQMNSLKPEDTAVYYCAKDSQTARDFDYWGQGTQVTVSS,low polyreactivity
2,QVQLVESGGGLVQAGGSLRLSCAASGSILFGNAMGWYRQAPGKERELVAAITVSGGSTYYADSVKGRFTISRDNAKNTVYLQMNSLKPEDTAVYYCAAGGWWHYRPQSYSGPFDYWGQGTQVTVSS,low polyreactivity
3,QVQLVESGGGLVQAGGSLRLSCAASGSILFTNAMGWYRQAPGKERELVAAISSGGSTYYADSVKGRFTISRDNAKNTVYLQMNSLKPEDSAVYYCAADHLNVGREYVEYDYWGQGTQVTVSS,low polyreactivity
4,QVQLVESGGGLVQAGGSLRLSCAASGSILFTNAMGWYRQAPGKERELVAAISSGGSTYYADSVKGRFTISRDNAKNTVYLQMNSLKPEDTAVYYCAADQLNVGREYVEYDFWGQGTQVTVSS,low polyreactivity
5,QVQLVESGGGLVQAGGSLRLSCAASGSILGANAMGWYRQAPGKERELVAAISYRGGSTYYADSVKGRFTISRDNAKNTVYLQMNSLKPEDTAVYYCAAVVPTGYDYWGQGTQVTVSS,low polyreactivity
6,QVQLVESGGGLVQAGGSLRLSCAASGSILGDNAMAWYRQAPGKERELVAAISYRGGSTYADSVKGRFTISRANAKNTVYLQMNSLKPEDTAVYYCNKTDIDDSQYREYEYWGQGTQVTVSS,low polyreactivity
7,QVQLVESGGGLVQAGGSLRLSCAASGSILGDYGMGWYRQAPGKERELVAAITWNGDSTYYADSVKGRFTISRDNAKNTVYLQMNSLKPEDTAVYYCAADLQDYKYYPWYGYWGQGTQVTVSS,low polyreactivity
8,QVQLVESGGGLVQAGGSLRLSCAASGSILGDYGMGWYRQAPGKEREVVAAITWNGDSTYYADSVKGRFTISRDNAKNTVYLQMNSLKPEDTAVYYCAADLQDYKYYPWYGYWGQGTQVTVSS,low polyreactivity
9,QVQLVESGGGLVQAGGSLRLSCAASGSILGGNAMGWYRQAPGKERELVAAITFSGGGTYYADSVKGRFTISRDNAKNTVYLQMNRLKPEDTAVYYCNAFGPDYYHVYPAEDYWGQGTQVTVSS,low polyreactivity
10,QVQLVESGGGLVQAGGSLRLSCAASGSILGGNSMGWYRQATGKERVLVAAITFSGGGTYYADSVKGRFTISRDNAKKTVYLQMNSLKPEDSAVYYCAADKDGYTYEFDYWGQGTQVTVSS,low polyreactivity
11,QVQLVESGGGLVQAGGSLRLSCAASGSILGLYAMRWYRQATGKERELVASIPSSGSTYYAVSVKGRFTISRDYAKNTVYLQMYSLKPEDTAVYYCAAVGSYYYYIRYDYWGQGTQVTVSS,low polyreactivity
12,QVQLVESGGGLVQAGGSLRLSCAASGSILGPNAMGWYRQAPGKERELVARISTSGGSTYYADSVKGRFTISRDNAKNTVYLQMNSLKPEDTAVYYCATGLVWWRSPYDYWGQGTQVTVSS,high polyreactivity
13,QVQLVESGGGLVQAGGSLRLSCAASGSILGPYAMGWYRQAPGKERELVAGISGSGTRTYYADSVKGRFTISRDNAKNTVYLQMNSLKPEDPAVYYCAARYYSSWIRYPTYDYWGQGTQVTVSS,high polyreactivity
14,QVQLVESGGGLVQAGGSLRLSCAASGSILGRYAMGGYRQAPGKERELVASITRRAGTTYYADSVKGRFTISRDNAKNTVYLQKNSLKPEATAVYYCAARAYTNYYYWGQGTQVTVSS,high polyreactivity
15,QVQLVESGGGLVQAGGSLRLSCAASGSILGSNAMGWYRQAPGKERELVAAITSSGGSTYYADSVKGRFTISRDNAKNTVYLQMNSLKPEDTAVYYCAARTNYDSTRGEYDYWGQGTQVTVSS,low polyreactivity
16,QVQLVESGGGLVQAGGSLRLSCAASGSILGSYAMGWYRQAPGKERELVAAINYSGGSTYYADSVKGRFTISRDNAKNTVYLQMNSLKPEETAVYYCAAVATAGYSNYKLDYWGQGTQVTVSS,low polyreactivity
17,QVQLVESGGGLVQAGGSLRLSCAASGSILGVYAMGWYRQAPGKERELVAAISSGGRTYYADSVKGRFTISRDNAKNTVYLQMNSLKPEDTAVYYCNAVSGSFLKYSRYYWGQGTQVTVSS,high polyreactivity
18,QVQLVESGGGLVQAGGSLRLSCAASGSILIGNAMGWYRQAPGKERELVAGISSDVSTNYADSVKGRFTISRDNAKNTVYLQMNSLNPEDTAVYYCNKDAGPFQEHLYSWGYDSWGQGTQVTVSS,low polyreactivity
19,QVQLVESGGGLVQAGGSLRLSCAASGSILIVYAMGWYRQAPGKERELVAAITRGGRTNYADSVKGRFTISRDNAKNTVYLQMNSLKPEDTAVYYCAARVLPANVKPYNYWGQGTQVTVSS,high polyreactivity
20,QVQLVESGGGLVQAGGSLRLSCAASGSILKRYAMGWYRQAPGKERELVAAITRRGGSTYYADSVKGRFTISRDNAKNTVYLQMNSLKPEDTAVYYCNAYTYSATVPIFTNYGYWGQGTQVTVSS,high polyreactivity
21,QVQLVESGGGLVQAGGSLRLSCAASGSILLDYAMGWYRQAPGKERELVAVISRRGTSTYYADSVKGRFTISRDNAKNTVYLQMNSLKPEDTAVYYCATSTWSFYRRYDYWGQGTQVTVSS,high polyreactivity

row,Sequence,polyreactivity (PSR sort gate)
1,QVQLVESGGGLVQAGGSLRLSCAASGSILLTNAMGWYRQAPGKERELVAAITSSGGSTSYADSVKGRFTISRDNAKNTVYIQMNSLKPEDTAVYYCAAAQRYRSQQFDHWGQGTQVTVSS,low polyreactivity
2,QVQLVESGGGLVQAGGSLRLSCAASGSILLWNTMGWYRQAPGKERELVADIRLSASSTYYSDSVKGRITISRDNAKNTVYLQMNSLKPEDTAVSYSAADEYTPDYGQGYDYWGQGTQVTVSS,low polyreactivity
3,QVQLVESGGGLVQAGGSLRLSCAASGSILNDYAMGWYRQAPGKERELVAGISRGGGTYYADSVKGRFTISRDNAKNTVYLQMNSLKPEDTAVYYCAKRIYWYHYRYDYWGQGTQVTVSS,high polyreactivity
4,QVQLVESGGGLVQAGGSLRLSCAASGSILPRYVMGSYRQAPAKETELVAAISQSGGSTYYADTVKARFTISRDNAKNTVYLQMNRLKPEDTAVYYCAAEVRGWRVDYYYWGQGTQVTVSS,high polyreactivity
5,QVQLVESGGGLVQAGGSLRLSCAASGSILPYYAMGWYRQAPGKERELVAAISVSGGGTYYADSVKGRFTISRDNAKNTVYLQMNSLKPEDTAVYYCARNVNAQKVLGGFDSWGQGTQVTVSS,low polyreactivity
6,QVQLVESGGGLVQAGGSLRLSCAASGSILQTNVMGWYIQAPGKEREFVAAIRWSTVSTYYADSVKGRFTISRDNAKNTVYLQMNSLKPEDTAVYYCASAKSWYSYKMDYWGQGTQVTVSS,low polyreactivity
7,QVQLVESGGGLVQAGGSLRLSCAASGSILRRNTMGCYRQAPGKERELVAAINKTGGSTYYADSVKGRFTISRDNAKNTVYLQMNSLKPEDTAVYYCNRDKYYGTKYDYWGQGTQVTVSS,low polyreactivity
8,QVQLVESGGGLVQAGGSLRLSCAASGSILRRYAMGWYRQAPWKERELVAAITSSGGGTYYADSVKGRFTISRDNAKNTVYLQMKSLKPEVTAVYYCAAEYGWLYEYDYWGQGTQVTVSS,high polyreactivity
9,QVQLVESGGGLVQAGGSLRLSCAASGSILRSNAMGWYRQAPGKERELVAAITFNGGSTYADSVKGRFTISRDNAKNTVYLQMNSLIPEDTAVYYCATGDGPSLFDYWGQGTQVTVSS,low polyreactivity
10,QVQLVESGGGLVQAGGSLRLSCAASGSILRSYAMGWYRQAPGKERELVAAISSSGGSTYYADSVKGRFTISRDNAKNTVYLQMNSLKPEDTAVYYCAAATSRRFDYWGQGTQVTVSS,high polyreactivity
11,QVQLVESGGGLVQAGGSLRLSCAASGSILRTYTMGWYRQATGKERELVAAISSSGGRTYYADSVKGRFTISRDNAKNTVYLQMNSLKPEDTAVYYCNAGGYRYRSYDYWGQGTQVTVSS,high polyreactivity
12,QVQLVESGGGLVQAGGSLRLSCAASGSILRYTMGWYRQAPGKEREWVAAITRSGTSTYYADSVKGRFTISRDNAKNTVYLQMNSLKPEDTAVYYCAASAGPRASYYYWGQGTQVTVSS,high polyreactivity
13,QVQLVESGGGLVQAGGSLRLSCAASGSILRYYAMGWYRQAPGKERELVAAITGRGGRTYYADSVKGRFTISRDNAKYTVYLQMNSLKPEDTAVYYCAADGDNPYLHEEDYWGQGTQVTVSS,high polyreactivity
14,QVQLVESGGGLVQAGGSLRLSCAASGSILSFNAMGWYRQAPGKERELVAAISRGGSTNYADSVKGRFTISRDNAKNTVYLQMNSLKPEDTAVYYCAAVQYRYSTRWARRAYDYWGQGTQVTVSS,high polyreactivity
15,QVQLVESGGGLVQAGGSLRLSCAASGSILSINGMGWYRQAPGKERELVATIDGSDGSTFYADSVKGRFTISRDNAKNTVYLQMNSLKPEDTAVYYCAAENFWQTKEYDYWGQGTQVTVSS,low polyreactivity
16,QVQLVESGGGLVQAGGSLRLSCAASGSILSLYTMGWYRQAPGKERELVARISRSGGSTYYADSVKGRFTISRDNAKNTVYLQMNSLKTEDTAVYYCAARPYVVIYYGKSRGYYWGQGTQVTVSS,high polyreactivity
17,QVQLVESGGGLVQAGGSLRLSCAASGSILSPNAMGWYRQAPGKERELVADISSVGSTYYADSVKGRFTISRDNAKNTVYLQMNSLKPEDTAVYYCAAEFRATDGIGYDYWGQGTHVTVSS,low polyreactivity
18,QVQLVESGGGLVQAGGSLRLSCAASGSILSYYAMGWYRQAPGKEREFVAAISSGGGTYYADSVKGRFTISRDNAKNTVYLQMNSLKPEDTAVYYCNAEIWTEGGYWGQGTQVTVSS,low polyreactivity
19,QVQLVESGGGLVQAGGSLRLSCAASGSILSYYTMGWYRQAPGKERELVAAISAGGGSTYYADSVKGRFTISRDNAKNTVYLQMNSLKPEDTAVYYCASGFSRRWQYNYWGQGTQVTVSS,high polyreactivity
20,QVQLVESGGGLVQAGGSLRLSCAASGSILSYYVMGWYRQAPGKERELVAAITSDGSKNYADSVKGRFTISRDNAKNTVYLQMNSLKPEDTAVYYCAAVIAWYYGVQDVYYLGLYDYWGQGTQVTVSS,low polyreactivity
